Assay [1] has as its target T1, IL13Rα2 deletion mutant D1-1c (15 residues …, 57-71, deleted) (human, UniProt Q14627 27-343).
T1 construct: also called 突变的IL13Rα2蛋白的D1-1c
T1 sequence: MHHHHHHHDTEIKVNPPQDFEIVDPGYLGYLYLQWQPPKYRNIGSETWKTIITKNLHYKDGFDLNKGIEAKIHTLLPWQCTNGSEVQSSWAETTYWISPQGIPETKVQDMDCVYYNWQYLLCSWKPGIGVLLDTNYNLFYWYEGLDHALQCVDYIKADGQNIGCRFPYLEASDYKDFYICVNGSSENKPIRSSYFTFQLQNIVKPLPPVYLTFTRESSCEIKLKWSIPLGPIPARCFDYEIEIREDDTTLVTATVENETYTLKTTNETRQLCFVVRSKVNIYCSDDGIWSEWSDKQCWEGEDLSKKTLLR
The assay is described as follows: Western blot. Background: Immunoblotting shows a protein as a band on a membrane.

The target of assay [2] is T2, IL13Rα2 antigen with His tag, expressed from pMAL in E. coli (IL13Rα2-HIS) (human) (UniProt Q14627).
T2 sequence: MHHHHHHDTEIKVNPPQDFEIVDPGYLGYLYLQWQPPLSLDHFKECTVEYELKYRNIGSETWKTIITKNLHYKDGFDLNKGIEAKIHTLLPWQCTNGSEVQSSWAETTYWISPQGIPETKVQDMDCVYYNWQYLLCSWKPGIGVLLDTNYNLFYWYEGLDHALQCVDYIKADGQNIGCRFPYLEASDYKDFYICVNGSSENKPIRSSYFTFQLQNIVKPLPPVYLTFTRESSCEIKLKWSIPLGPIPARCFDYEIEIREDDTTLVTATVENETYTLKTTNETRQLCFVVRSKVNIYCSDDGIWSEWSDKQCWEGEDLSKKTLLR
Briefly: indirect ELISA, antigen coated at 3 μg/ml, serial dilutions of the antibody.

In assay [3] the target is T3, IL13Rα2 expressed in lung cancer cells A549 and H460 (fixed, permeabilised cells) (UniProt Q14627 27-380, limits assumed).
T3 construct: whole, on cells; A549 and H460 are human lung cancer lines; also called A549和H460细胞中的IL13Rα2
T3 sequence (looked up): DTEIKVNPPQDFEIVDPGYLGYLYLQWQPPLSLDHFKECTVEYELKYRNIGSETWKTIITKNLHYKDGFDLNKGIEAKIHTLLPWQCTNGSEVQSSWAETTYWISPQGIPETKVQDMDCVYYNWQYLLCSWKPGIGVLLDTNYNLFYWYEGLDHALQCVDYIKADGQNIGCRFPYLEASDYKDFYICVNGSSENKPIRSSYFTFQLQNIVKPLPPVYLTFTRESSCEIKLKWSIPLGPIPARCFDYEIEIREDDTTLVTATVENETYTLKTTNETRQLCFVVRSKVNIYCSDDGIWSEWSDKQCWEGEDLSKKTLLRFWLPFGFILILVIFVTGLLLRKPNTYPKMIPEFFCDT
The assay is described as follows: immunofluorescence on fixed, permeabilised cells.

The target of assay [4] is T4, IL13Rα2 glycine-scan mutant EP2 (human, UniProt Q14627 27-343).
T4 construct: The changed residues (60-62) are inferred in the same way as for EP1
T4 chain: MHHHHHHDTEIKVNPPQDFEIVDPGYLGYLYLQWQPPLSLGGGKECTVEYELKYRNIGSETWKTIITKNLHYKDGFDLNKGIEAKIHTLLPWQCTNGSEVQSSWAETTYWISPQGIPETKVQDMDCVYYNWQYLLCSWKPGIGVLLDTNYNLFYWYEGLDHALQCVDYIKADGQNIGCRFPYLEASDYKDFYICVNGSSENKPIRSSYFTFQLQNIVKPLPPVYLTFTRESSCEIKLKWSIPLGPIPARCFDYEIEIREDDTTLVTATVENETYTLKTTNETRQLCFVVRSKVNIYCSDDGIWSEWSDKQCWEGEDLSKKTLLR
Briefly: Western blot, glycine scan mutants.

Assay [5] has as its target T5, IL13Rα2 glycine-scan mutant EP3 (human, UniProt Q14627 27-343).
T5 construct: The changed residues (63-65) are inferred in the same way as for EP1
T5 chain: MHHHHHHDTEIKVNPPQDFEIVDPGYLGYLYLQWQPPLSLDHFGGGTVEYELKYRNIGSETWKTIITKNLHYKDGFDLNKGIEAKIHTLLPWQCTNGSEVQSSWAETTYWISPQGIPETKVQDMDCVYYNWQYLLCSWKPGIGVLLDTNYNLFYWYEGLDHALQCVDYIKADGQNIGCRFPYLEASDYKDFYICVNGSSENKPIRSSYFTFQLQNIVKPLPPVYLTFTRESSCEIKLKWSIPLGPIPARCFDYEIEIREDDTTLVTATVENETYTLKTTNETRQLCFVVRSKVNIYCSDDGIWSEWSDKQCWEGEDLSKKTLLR
The assay is described as follows: Western blot, glycine scan mutants.

For assay [6], the target named is T6, IL13Rα2 glycine-scan mutant EP1 (human, UniProt Q14627 27-343, limits assumed).
T6 chain: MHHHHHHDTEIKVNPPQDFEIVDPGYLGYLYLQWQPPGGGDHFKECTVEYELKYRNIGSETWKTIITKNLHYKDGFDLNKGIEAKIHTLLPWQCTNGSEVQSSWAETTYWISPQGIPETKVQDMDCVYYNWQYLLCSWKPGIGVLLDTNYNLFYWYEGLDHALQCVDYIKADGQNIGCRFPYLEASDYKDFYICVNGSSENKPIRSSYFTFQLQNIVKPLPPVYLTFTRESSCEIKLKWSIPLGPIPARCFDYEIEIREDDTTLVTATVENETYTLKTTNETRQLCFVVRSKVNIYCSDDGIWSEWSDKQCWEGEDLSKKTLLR
Briefly: Western blot, glycine scan mutants.

The target of assay [7] is T7, IL13Rα2 antigen with His tag, expressed from pMAL in E. coli (IL13Rα2-HIS) (human, UniProt Q14627 27-343).
T7 construct: Purified on Ni-NTA; also called IL13Rα2抗原; pMAL-IL13Rα2
T7 sequence: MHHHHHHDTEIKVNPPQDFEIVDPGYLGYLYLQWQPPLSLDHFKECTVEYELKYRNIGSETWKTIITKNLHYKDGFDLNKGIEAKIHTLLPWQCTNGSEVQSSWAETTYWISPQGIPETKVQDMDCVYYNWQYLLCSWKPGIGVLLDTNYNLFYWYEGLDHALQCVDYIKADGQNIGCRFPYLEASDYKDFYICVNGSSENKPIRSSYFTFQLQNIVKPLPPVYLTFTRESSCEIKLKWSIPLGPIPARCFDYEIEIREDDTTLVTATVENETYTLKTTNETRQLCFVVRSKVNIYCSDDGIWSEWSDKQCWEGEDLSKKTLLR
The assay is described as follows: Western blot (Fig. 24).

We go through 2 molecules from patent publication CN114573694A (SHENZHEN HUAJI BIOTECHNOLOGY CO LTD; UNIV SHANGHAI TRAFFIC, dated 2022).

B1: anti-IL13Rα2 monoclonal antibody mAb15D8 (mouse, from hybridoma) (antibody, mouse IgG1, kappa, V domains shown)
VH: QVTLKESGPGILQPSQTLSLTCSFSGFSLSPSGMGVSWIRQPSGKGLEWLAHIYWDDDKLYNPSLKSRLTISKDTSSNQVFLKITSVDTADTATYYCARRGLRLRAMDYWGQGTSVTVSS
VL: DIVLTQSPASLAVSLGQRATISCRASESVDSYGNSFMHWYQQKPGQPPKLLIYRTSNLESGIPARFSGSGSRTDFTLTINPVEADDVATYYCQQSNEDPFTFGSGTKLEIKR
notes: Purified on Protein G; also called m15D8; 单克隆抗体15D8
Regarding B1, the binding result is given as “no binding” in assay [1]; “binds” in assay [3]; “no binding” in assay [4]; “no binding” in assay [5]; “no binding” in assay [6]. In assay [2], the 效价 (titer) (fold dilution) was > 10000.

B2: recombinantly expressed monoclonal antibody mAb15D8 (293F cells transiently transfected with p15D8MusE) (antibody, mouse IgG1, kappa, V domains shown)
VH: QVTLKESGPGILQPSQTLSLTCSFSGFSLSPSGMGVSWIRQPSGKGLEWLAHIYWDDDKLYNPSLKSRLTISKDTSSNQVFLKITSVDTADTATYYCARRGLRLRAMDYWGQGTSVTVSS
VL: DIVLTQSPASLAVSLGQRATISCRASESVDSYGNSFMHWYQQKPGQPPKLLIYRTSNLESGIPARFSGSGSRTDFTLTINPVEADDVATYYCQQSNEDPFTFGSGTKLEIKR
notes: also called 重组表达单克隆抗体mAb15D8; 重组表达抗体
As to B2, the binding result in assay [7] is on record as “binds”.
